Data on two molecules can be found in ChEMBL document CHEMBL1130356, “A CHROMOGENIC SUBSTRATE FOR THE CONTINUOUS ASSAY OF MAMMALIAN PHOSPHOINOSITIDE-SPECIFIC PHOSPHOLIPASE C” (Bioorg Med Chem Lett, 1997).

In data set [1] the target is T1, 1-phosphatidylinositol 4,5-bisphosphate phosphodiesterase beta-1 (Homo sapiens) (UniProt Q9NQ66).
T1 sequence (whole entry): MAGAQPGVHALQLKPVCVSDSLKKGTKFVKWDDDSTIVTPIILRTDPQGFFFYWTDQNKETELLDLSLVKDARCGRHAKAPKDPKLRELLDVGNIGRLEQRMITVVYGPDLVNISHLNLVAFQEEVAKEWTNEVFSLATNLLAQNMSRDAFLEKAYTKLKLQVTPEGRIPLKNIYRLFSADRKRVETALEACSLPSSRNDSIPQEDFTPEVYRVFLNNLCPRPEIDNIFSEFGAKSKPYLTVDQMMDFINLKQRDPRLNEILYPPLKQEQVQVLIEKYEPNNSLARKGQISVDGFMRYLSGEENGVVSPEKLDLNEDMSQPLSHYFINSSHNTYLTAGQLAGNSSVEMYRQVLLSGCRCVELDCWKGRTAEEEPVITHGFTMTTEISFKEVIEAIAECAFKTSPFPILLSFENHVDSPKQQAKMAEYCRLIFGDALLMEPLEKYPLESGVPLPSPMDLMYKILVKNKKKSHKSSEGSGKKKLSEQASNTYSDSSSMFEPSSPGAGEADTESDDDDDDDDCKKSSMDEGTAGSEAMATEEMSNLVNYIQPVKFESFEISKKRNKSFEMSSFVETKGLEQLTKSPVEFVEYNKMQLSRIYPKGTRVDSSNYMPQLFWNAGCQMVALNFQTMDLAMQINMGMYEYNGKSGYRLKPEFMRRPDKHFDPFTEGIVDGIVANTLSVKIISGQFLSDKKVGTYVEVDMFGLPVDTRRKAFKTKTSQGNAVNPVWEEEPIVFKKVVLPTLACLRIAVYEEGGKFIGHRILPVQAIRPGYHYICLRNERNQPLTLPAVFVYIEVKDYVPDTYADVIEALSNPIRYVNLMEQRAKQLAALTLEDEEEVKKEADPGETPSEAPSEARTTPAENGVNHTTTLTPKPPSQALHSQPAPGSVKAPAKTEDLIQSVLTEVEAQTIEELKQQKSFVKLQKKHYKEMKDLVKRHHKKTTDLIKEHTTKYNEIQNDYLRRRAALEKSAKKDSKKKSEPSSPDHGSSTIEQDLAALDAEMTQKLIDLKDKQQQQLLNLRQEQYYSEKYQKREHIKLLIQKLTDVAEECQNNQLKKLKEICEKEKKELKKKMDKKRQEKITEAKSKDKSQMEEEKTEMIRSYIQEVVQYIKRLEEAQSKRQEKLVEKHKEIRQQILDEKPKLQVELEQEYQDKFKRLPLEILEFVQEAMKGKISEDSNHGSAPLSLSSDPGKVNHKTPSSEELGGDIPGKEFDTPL
The data set is described as follows: Kinetic constant kcat against human phosphoinositide-specific phospholipase C.

The target in data set [2] is T1, 1-phosphatidylinositol 4,5-bisphosphate phosphodiesterase beta-1 (Homo sapiens). The data set is described as follows: Ratio of the kinetic constant kcat to that of KM.
Substrate in data set [3]: O=[N+]([O-])c1ccc(OP(=O)(O)O[C@@H]2[C@H](O)[C@H](O)[C@@H](OP(=O)(O)O)[C@H](OP(=O)(O)O)[C@H]2O)cc1
In words: Kinetic constant Vmax against human phosphoinositide-specific phospholipase C.

Substrate in data set [4]: O=[N+]([O-])c1ccc(OP(=O)(O)O[C@@H]2[C@H](O)[C@H](O)[C@@H](OP(=O)(O)O)[C@H](OP(=O)(O)O)[C@H]2O)cc1
The data set is described as follows: Michaelis-Menten constant against human phosphoinositide-specific phospholipase C.

Substrate in data set [5]: O=[N+]([O-])c1ccc(OP(=O)(O)O[C@@H]2[C@H](O)[C@H](O)[C@@H](OP(=O)(O)O)[C@H](OP(=O)(O)O)[C@H]2O)cc1
The data set is described as follows: Michaelis-Menten constant of the compound (D-isomer) was determined against human phosphoinositide-specific phospholipase C.

As to `O=[N+]([O-])c1ccc(OP(=O)(O)O[C@@H]2[C@H](O)[C@H](O)[C@@H](OP(=O)(O)O)[C@H](OP(=O)(O)O)[C@H]2O)cc1` (racemic), the k cat in data set [1] came to 112 s⁻¹. Moreover, the Ratio in data set [2] was 83000.

B1: 1-phosphatidylinositol 4,5-bisphosphate phosphodiesterase beta-1 (Homo sapiens), Q9NQ66 (protein)
chain: T1 sequence (whole entry)
As to B1, the maximum rate (Vmax) in data set [3] was 78.5 µM/min/mg. In addition, the results for the Km in data set [4] and in data set [5] were 2700 µM and 1350 µM, respectively.

One may read the Vmax as the top rate of the reaction or transport when substrate is in excess. The Km is the concentration of substrate that gives half-maximal velocity.
